Drawing on PMC5636754, “Structural and biochemical characterization of DAXX-ATRX interaction” (Protein & Cell, 2017), this text covers Kd for four variants.

For orientation: Kd means the free concentration of one partner at which half of the binding sites on the other are occupied at equilibrium, for simple one-to-one binding.

Sequences and labels used below:
B1: ATRX_(1,265–1,285), α-helix frame only (αDID), wild type peptide [human] / DAXX helical bundle (DHB) domain of death domain-associated protein (DAXX), aa 55-144 [not stated] (parent complex)
chain 1: NDPENRIAKKMLLEEIKANLS
chain 2: GKKCYKLENEKLFEEFLELCKMQTADHPEVVPFLYNRQQRAHSLFLASAEFCNILSRVLSRARSRPAKLYVYINELCTVLKAHSAKKKLN

The experiment covers variants of B1. The experiment can be described thus: ITC. (ITC needs no label: the signal is the heat of the interaction.)
In the case of chain 1 E15Q, the dissociation constant (Kd) was 3.2 µM.

Turning to chain 1 E4Q, the equilibrium dissociation constant (Kd) came out at 5.6 µM.

In the case of chain 1 D2N, the equilibrium dissociation constant (Kd) is 7 µM.

In the case of chain 1 K9A, the equilibrium dissociation constant (Kd) stood at 2.3 µM.
